Consider four sequences from PMC10846083.

Data set [1] addresses T1, MqsA (Escherichia coli K-12 MG1655) (UniProt Q46864).
T1 sequence: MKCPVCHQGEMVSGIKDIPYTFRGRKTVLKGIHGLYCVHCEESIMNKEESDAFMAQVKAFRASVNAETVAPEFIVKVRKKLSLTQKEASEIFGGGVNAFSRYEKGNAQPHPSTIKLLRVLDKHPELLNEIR
Nature of the data set: EMSA. Particulars: EMSA: 0.25 pmol biotin probe, MqsA titration, 6% polyacrylamide gel in TBE, buffer not given, footprinting: 200 ng FAM probe, 30 min, 25 C. In general terms: A gel shift assay detects complexes by their altered migration in electrophoresis.

The target of data set [2] is T1, MqsA (Escherichia coli K-12 MG1655). The data set is described as follows: DNase I footprinting. Particulars: EMSA: 0.25 pmol biotin probe, MqsA titration, 6% polyacrylamide gel in TBE, buffer not given, footprinting: 200 ng FAM probe, 30 min, 25 C.

“CTGGCGTATGAGGTAATAAAGCGCGTTTGGGAAGGTGAAATGTTGCTGGTAAATGATTCGGAGTCAGCGGGGGAAGGTGTCGGTGCGGATGCCTGACCTGTGGATATAGCGGTTAAAACCTTCACCGGCGTCCGGTTCAAAGTTCCATGCCCGCCAACCATCCGACCTTCGGCATCACGAACTATCAGGCGGACGTGAATGCCCTGGTTTGTGTCAATGTTAATGTCGGTGATACCGGCAGATACCAGTGGCCCTGCTACGCAATC (double strand) [lfgA promoter mutant probe 2 (MP2)]”: the binding entry in data set [1] is “no binding”.

Turning to “CTGGCGTATGAGGTAATAAAGCGCGTTTGGGAAGGTGAAATGTTGCTGGTAAATGATTCGGAGTCAGCGGGGGAAGGTGTCGGTGCGGATGCCTGACCTGTGGATATAGCGGTTAAAACCTTCTTTTGCGTCATTATCAAAGTTCCATGCCCGCCAACCATCCGACCTTCGGCATCACGAACTATCAGGCGGACGTGAATGCCCTGGTCGTCTTCAATGTTAATGTCGGTGATACCGGCAGATACCAGTGGCCCTGCTACGCAATC (double strand) [lfgA promoter mutant probe 1 (MP)]”, the binding result in data set [1] is listed as “binds”.

Take “GATTGCGTAGCAGGGCCACTGGTATCTGCCGGTATCACCGACATTAACATTGAAGACGACCAGGGCATTCACGTCCGCCTGATAGTTCGTGATGCCGAAGGTCGGATGGTTGGCGGGCATGGAACTTTGAACCGGACGCCGGTGAAGGTTTTAACCGCTATATCCACAGGTCAGGCATCCGCACCGACACCTTCCCCCGCTGACTCCGAATCATTTACCAGCAACATTTCACCTTCCCAAACGCGCTTTATTACCTCATACGCCAG (double strand) [FAM-lfgA (yfjY) promoter footprint probe]”: the binding result in data set [2] was “binds”.

As for “GATTGCGTAGCAGGGCCACTGGTATCTGCCGGTATCACCGACATTAACATTGAAGACGACCAGGGCATTCACGTCCGCCTGATAGTTCGTGATGCCGAAGGTCGGATGGTTGGCGGGCATGGAACTTTGAACCGGACGCCGGTGAAGGTTTTAACCGCTATATCCACAGGTCAGGCATCCGCACCGACACCTTCCCCCGCTGACTCCGAATCATTTACCAGCAACATTTCACCTTCCCAAACGCGCTTTATTACCTCATACGCCAG (double strand) [lfgA (yfjY) promoter WT probe]”, the binding entry in data set [1] is “binds”.
